Where two headings read alike, the source gives them in different places.
Columns and labels:
Assay in all cases: G' assay
[1] = biological target: T1, GST-KIAA0147 PDZ domain 2 (Homo sapiens (Human)), Q14160
T1 chain: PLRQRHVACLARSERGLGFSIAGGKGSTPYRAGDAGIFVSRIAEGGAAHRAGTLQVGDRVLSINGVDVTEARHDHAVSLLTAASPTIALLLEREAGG

[2] = biological target: GST-PSD95 PDZ domain 1 (Homo sapiens)
[3] = biological target: T2, GST-ERBIN PDZ domain 1 (Homo sapiens (Human)), Q96RT1
T2 chain: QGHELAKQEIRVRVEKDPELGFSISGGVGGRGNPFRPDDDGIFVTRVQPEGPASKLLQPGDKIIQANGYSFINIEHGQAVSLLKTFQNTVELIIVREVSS

[4] = biological target: T3, GST-DLG2 PDZ domain 2 (Homo sapiens (Human)), Q15700
T3 chain: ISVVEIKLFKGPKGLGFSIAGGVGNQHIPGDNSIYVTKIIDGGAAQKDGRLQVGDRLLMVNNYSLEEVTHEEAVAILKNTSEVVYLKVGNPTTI

[5] = biological target: GST-BAI-1 Associated Protein PDZ domain 3 (Homo sapiens (Human)), Q96QZ7
GST-BAI-1 Associated Protein PDZ domain 3 (Homo sapiens (Human)), Q96QZ7, sequence (Q96QZ7 other isoform, or with tags, fused parts or gaps): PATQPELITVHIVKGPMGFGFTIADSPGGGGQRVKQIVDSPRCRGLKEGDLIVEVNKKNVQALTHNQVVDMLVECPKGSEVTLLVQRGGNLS

[6] = biological target: T4, GST-INADL PDZ domain 5 (Homo sapiens (Human)), Q8NI35
T4 chain: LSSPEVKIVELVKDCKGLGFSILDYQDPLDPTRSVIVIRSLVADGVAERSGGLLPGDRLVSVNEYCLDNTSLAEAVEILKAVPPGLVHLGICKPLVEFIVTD

[7] = biological target: GST-DLG1 PDZ domain 1 (Homo sapiens), Q12959
[8] = biological target: T5, GST-Syntrophin gamma 2 PDZ domain 1 (Homo sapiens (Human)), Q9NY99
T5 chain: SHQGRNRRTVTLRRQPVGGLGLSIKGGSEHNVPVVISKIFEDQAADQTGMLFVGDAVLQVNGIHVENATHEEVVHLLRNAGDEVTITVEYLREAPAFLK

[9] = biological target: T6, GST-Shank 1 PDZ domain 1 (Homo sapiens (Human)), Q9UPX8
T6 chain: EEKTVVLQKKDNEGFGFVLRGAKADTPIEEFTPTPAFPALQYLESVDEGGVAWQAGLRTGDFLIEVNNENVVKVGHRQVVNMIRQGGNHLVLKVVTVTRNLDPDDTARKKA

[10] = biological target: GST-KIAA0147 PDZ domain 1 (Homo sapiens (Human)), Q14160
GST-KIAA0147 PDZ domain 1 (Homo sapiens (Human)), Q14160, sequence (Q14160 other isoform, or with tags, fused parts or gaps): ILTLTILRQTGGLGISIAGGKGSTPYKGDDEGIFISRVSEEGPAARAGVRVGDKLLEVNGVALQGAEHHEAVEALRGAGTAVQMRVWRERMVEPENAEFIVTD

[11] = biological target: T7, GST-KIAA0147 PDZ domain 3 (Homo sapiens (Human)), Q14160
T7 chain: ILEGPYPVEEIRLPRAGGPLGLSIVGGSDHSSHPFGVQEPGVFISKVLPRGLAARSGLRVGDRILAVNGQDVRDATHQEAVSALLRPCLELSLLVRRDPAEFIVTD

[12] = biological target: T8, GST-NOS1 PDZ domain 1 (Homo sapiens (Human)), P29475
T8 chain: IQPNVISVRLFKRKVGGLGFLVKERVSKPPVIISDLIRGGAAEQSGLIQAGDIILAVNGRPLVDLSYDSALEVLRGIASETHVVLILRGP

[13] = biological target: GST-KIAA1634 PDZ domain 4 (Homo sapiens (Human)), Q5TCQ9
GST-KIAA1634 PDZ domain 4 (Homo sapiens (Human)), Q5TCQ9, sequence (Q5TCQ9 844-945): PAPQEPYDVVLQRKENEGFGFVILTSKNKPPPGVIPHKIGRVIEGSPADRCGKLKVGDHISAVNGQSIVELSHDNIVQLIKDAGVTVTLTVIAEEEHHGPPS

[14] = biological target: T9, GST-ZO-2 PDZ domain 1 (Homo sapiens (Human)), Q9UDY2
T9 chain: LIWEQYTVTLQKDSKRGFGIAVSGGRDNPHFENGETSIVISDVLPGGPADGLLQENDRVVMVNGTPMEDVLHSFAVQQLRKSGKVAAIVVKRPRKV

[15] = biological target: T10, GST-MUPP1 PDZ domain 10 (Homo sapiens (Human)), O75970
T10 chain: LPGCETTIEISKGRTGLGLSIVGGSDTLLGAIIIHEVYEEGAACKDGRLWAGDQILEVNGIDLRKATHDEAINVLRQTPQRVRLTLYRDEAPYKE

[16] = biological target: GST-KIAA1634 PDZ domain 1 (Homo sapiens (Human)), Q5TCQ9
GST-KIAA1634 PDZ domain 1 (Homo sapiens (Human)), Q5TCQ9, sequence (Q5TCQ9 401-502): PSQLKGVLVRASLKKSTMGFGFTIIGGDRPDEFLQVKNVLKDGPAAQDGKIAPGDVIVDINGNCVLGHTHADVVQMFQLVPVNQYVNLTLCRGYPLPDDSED

[17] = biological target: T11, GST-ZO-1 PDZ domain 1 (Rattus norvegicus (Rat)), A0A0G2
T11 chain: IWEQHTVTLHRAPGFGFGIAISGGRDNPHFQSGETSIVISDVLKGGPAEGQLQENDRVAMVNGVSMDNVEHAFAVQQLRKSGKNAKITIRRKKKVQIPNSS

GST-ZO-3 PDZ domain 1 = biological target: T12, GST-ZO-3 PDZ domain 1
T12 chain: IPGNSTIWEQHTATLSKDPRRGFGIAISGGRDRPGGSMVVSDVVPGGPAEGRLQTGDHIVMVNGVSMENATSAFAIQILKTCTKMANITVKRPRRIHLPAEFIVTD

[18] = biological target: T13, GST-ZO-1 PDZ domain 2 (Rattus norvegicus (Rat)), A0A0G2
T13 chain: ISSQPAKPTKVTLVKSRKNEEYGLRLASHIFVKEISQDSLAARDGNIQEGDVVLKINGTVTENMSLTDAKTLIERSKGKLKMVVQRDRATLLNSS

[19] = biological target: T14, GST-ZO-2 PDZ domain 2 (Homo sapiens (Human)), Q9UDY2
T14 chain: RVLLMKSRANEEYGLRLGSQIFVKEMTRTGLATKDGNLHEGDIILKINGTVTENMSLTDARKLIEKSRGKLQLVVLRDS

[20] = biological target: T15, GST-X-11 beta PDZ domain 2 (Rattus norvegicus (Rat)), O35431
T15 chain: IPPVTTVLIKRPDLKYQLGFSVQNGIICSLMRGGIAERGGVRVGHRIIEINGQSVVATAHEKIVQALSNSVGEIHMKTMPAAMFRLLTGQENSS

[21] = biological target: T16, GST-EZRIN Binding Protein 50 PDZ domain 1 (Homo sapiens (Human)), O14745
T16 chain: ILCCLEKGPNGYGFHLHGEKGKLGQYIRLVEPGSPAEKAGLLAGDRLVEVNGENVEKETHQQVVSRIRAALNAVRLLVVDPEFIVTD
Note: key of the grades not given here.

## PYSELNYETSHYPASPDSWV (modifications not checked) [catenin - delta 2]
[1]
  Classification: 3 A450 class
[2]
  Classification: 1 A450 class
[3]
  Classification: 4 A450 class
[4]
  Classification: 1 A450 class
[5]
  Classification: 1 A450 class
[6]
  Classification: 1 A450 class
[7]
  Classification: 1 A450 class

## VPGALDYAAFSSALYGESDL (modifications not checked) [a-actinin 2]
[8]
  Classification: 1 A450 class
[9]
  Classification: 1 A450 class
[10]
  Classification: 2 A450 class
[3]
  Classification: 1 A450 class
[11]
  Classification: 3 A450 class

## VGTLLLERVIFPSVKIATLV (modifications not checked) [AdenoE4 typ9]
[12]
  Classification: 5 A450 class
[2]
  Classification: 4 A450 class
[13]
  Classification: 4 A450 class
[4]
  Classification: 5 A450 class
[5]
  Classification: 5 A450 class
[14]
  Classification: 3 A450 class
[7]
  Classification: 4 A450 class
[15]
  Classification: 1 A450 class
[16]
  Classification: 5 A450 class
[17]
  Classification: 2 A450 class

## ELLQFCRTPNPALKNGQYWV (modifications not checked) [CSPG4 (chondroitin sulfae proteoglycan 4, melanoma-associated)]
[12]
  Classification: 2 A450 class
GST-ZO-3 PDZ domain 1
  Classification: 2 A450 class
[18]
  Classification: 4 A450 class
[3]
  Classification: 3 A450 class
[19]
  Classification: 1 A450 class
[20]
  Classification: 2 A450 class
[14]
  Classification: 5 A450 class
[6]
  Classification: 5 A450 class
[15]
  Classification: 4 A450 class
[16]
  Classification: 5 A450 class
[17]
  Classification: 5 A450 class

## ILNSIQVMRAQMNQIQSVEV (modifications not checked) [ephrin B2]
GST-ZO-3 PDZ domain 1
  Classification: 1 A450 class
[21]
  Classification: 1 A450 class
[18]
  Classification: 2 A450 class
[19]
  Classification: 1 A450 class
[20]
  Classification: 1 A450 class
[14]
  Classification: 1 A450 class
[17]
  Classification: 3 A450 class

## PIPAGGCTFSGIFPTLTSPL (modifications not checked) [KIA 1481]
[9]
  Classification: 5 A450 class
[21]
  Classification: 2 A450 class
[10]
  Classification: 2 A450 class
[6]
  Classification: 1 A450 class
[16]
  Classification: 2 A450 class

## TQGFPGPATWRRISSLESEV (modifications not checked) [NMDA Glutamate Receptor 2C (cysteine-free)]
[12]
  Classification: 1 A450 class
[8]
  Classification: 2 A450 class
[1]
  Classification: 1 A450 class
[2]
  Classification: 5 A450 class
[10]
  Classification: 5 A450 class
[3]
  Classification: 4 A450 class
[13]
  Classification: 1 A450 class
[4]
  Classification: 5 A450 class
[5]
  Classification: 1 A450 class
[6]
  Classification: 1 A450 class
[11]
  Classification: 1 A450 class
[7]
  Classification: 5 A450 class
[15]
  Classification: 1 A450 class
[16]
  Classification: 5 A450 class

## HDFRRAFKKILARGDRKRIV (modifications not checked) [alpha-2A Adrenergic receptor]
[18]
  Classification: 4 A450 class
[19]
  Classification: 2 A450 class
[20]
  Classification: 1 A450 class

## QISPGGLEPPSEKHFRETEV (modifications not checked) [TAX]
[8]
  Classification: 1 A450 class
[1]
  Classification: 5 A450 class
[2]
  Classification: 5 A450 class
[10]
  Classification: 5 A450 class
[3]
  Classification: 5 A450 class
[13]
  Classification: 2 A450 class
[4]
  Classification: 5 A450 class
[5]
  Classification: 1 A450 class
[11]
  Classification: 1 A450 class
[7]
  Classification: 5 A450 class
[16]
  Classification: 5 A450 class

## AWDDSARAAGGQGLHVTAL (modifications not checked) [LPAP]
[12]; remark: other sources report otherwise
  Classification: 1 A450 class
[9]
  Classification: 3 A450 class
[21]
  Classification: 5 A450 class
[10]
  Classification: 3 A450 class

## KTMPAAMYRLLTAQEQPVYI (modifications not checked) [MINT-1]
[12]
  Classification: 4 A450 class
GST-ZO-3 PDZ domain 1
  Classification: 2 A450 class
[15]
  Classification: 1 A450 class
[17]
  Classification: 1 A450 class

Source: US20050282743A1, “Molecular interactions in cells” (Arbor Vita Corporation, priority 2001, published 2005)
